The series is described as follows: self-splicing fitness, log relative to wild type (ln ratio); higher = more splicing; Tetrahymena group I intron in knt gene, E. coli kanamycin selection, DiMSum; sequences stand for … in CUCUCU…GGAGGGAAAAGUUAUCAGGCAUGCACCUGGUAGCUAGUCUUUAAACCAAUAGAUUGCAUCGGUUUAAAAGGCAAGACCGUCAAAUUGCGGGAAAGGGGUCAACAGCCGUUCAGUACCAAGUCUCAGGGGAAACUUUGAGAUGGCCUUGCAAAGGGUAUGGUAAUAAGCUGACGGACAUGGUCCUAACCACGCAGCCAAGUCCUAAGUCAACAGAUCUUCUGUUGAUAUGGAUGCAGUUCACAGACUAAAUGUCGGUCGGGGAAGAUGUAUUCUUCUCAUAAGAUAUAGUCGGACCUCUCCUUAAUGGGAGCUAGCGGAUGAAGUGAUGCAACACUGGAGCCGCUGGGAACUAAUUUGUAUGCGAAAGUAUAUUGAUUAGUUUUGGAGUACUCGUGGUCG
Summed up:
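DiMSum derived fitness as the error-weighted combination of fold changes across replicates, kanamycin versus no kanamycin, normalised to wild type. E. coli BL21(DE3) held the library, which randomised all eight P1ex-region intron nucleotides within the knt kanamycin-resistance gene on pET-22b(+). Six replicate transformations grew overnight at 37°C or 30°C on LB agar with or without 25 μg/mL kanamycin, also containing 100 μg/mL carbenicillin, 50 μM IPTG and 0.2% rhamnose, and pooled colonies were amplicon-sequenced on an Illumina HiSeq 2500.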

± gives the uncertainty stated by the source.

For the sequence GGUGAGCAAUAUUACGUACU, the “self-splicing fitness (ln)” value is, setting by setting: (30 °C) -1.89 ± 0.14; (37 °C) -1.75 ± 0.17.

As for CGAAAGCAAUAUUACGAUAA, the “self-splicing fitness (ln)” value was -2.44 ± 0.17 (30 °C) and -0.695 ± 0.12 (37 °C).

For GUUCAGCAAUAUUACGACCA, the “self-splicing fitness (ln)” value reads like this: (30 °C) -0.964 ± 0.14; (37 °C) -0.856 ± 0.13.

For CUUCAGCAAUAUUACGUCUU, the “self-splicing fitness (ln)” value by setting is: (30 °C) -3.19 ± 0.16; (37 °C) -3.67 ± 0.42.

Regarding UUUCAGCAAUAUUACGCUAU, the “self-splicing fitness (ln)” value by setting is: (30 °C) -2.73 ± 0.17; (37 °C) -1.81 ± 0.14.

Turning to CAAAAGCAAUAUUACGUCUC, the “self-splicing fitness (ln)” value (30 °C) was -3.38 ± 0.23 and the “self-splicing fitness (ln)” value (37 °C) is -2.15 ± 0.2.

Regarding CCGUAGCAAUAUUACGAGCA, the “self-splicing fitness (ln)” value (37 °C) was -1.37 ± 0.33.

On to GGGGAGCAAUAUUACGUAAA, for which the “self-splicing fitness (ln)” value is, setting by setting: (30 °C) -3.12 ± 0.36; (37 °C) -1.18 ± 0.3.

CAAAAGCAAUAUUACGGUCC: the “self-splicing fitness (ln)” value was -3.68 ± 0.29 (30 °C) and -1.88 ± 0.21 (37 °C).

As to UUGUAGCAAUAUUACGUCCU, the “self-splicing fitness (ln)” value reads like this: (30 °C) -1.48 ± 0.15; (37 °C) -0.583 ± 0.17.

On to UUAUAGCAAUAUUACGCUCG, for which the “self-splicing fitness (ln)” value reads like this: (30 °C) 0.392 ± 0.25; (37 °C) 0.206 ± 0.22.

With AAGGAGCAAUAUUACGUUGG, the “self-splicing fitness (ln)” value is, setting by setting: (30 °C) -4.4 ± 0.27; (37 °C) -2.5 ± 0.25.

As to AAUAAGCAAUAUUACGCGCG, the “self-splicing fitness (ln)” value (30 °C) is -0.258 ± 0.11 and the “self-splicing fitness (ln)” value (37 °C) turned out to be 0.0567 ± 0.15.

For the sequence GCUUAGCAAUAUUACGAGGG, the “self-splicing fitness (ln)” value (30 °C) was -1.83 ± 0.11 and the “self-splicing fitness (ln)” value (37 °C) is -1.36 ± 0.11.

As to GAGCAGCAAUAUUACGUCCU, the “self-splicing fitness (ln)” value reads like this: (30 °C) -0.165 ± 0.12; (37 °C) -0.134 ± 0.16.

Regarding AAAUAGCAAUAUUACGCGAG, the “self-splicing fitness (ln)” value is -1.93 ± 0.17 (30 °C) and -0.639 ± 0.14 (37 °C).

As to AUAGAGCAAUAUUACGUUGU, the “self-splicing fitness (ln)” value runs as follows: (30 °C) -1.96 ± 0.066; (37 °C) -1.52 ± 0.07.

AACGAGCAAUAUUACGCAUA: the “self-splicing fitness (ln)” value reads like this: (30 °C) -2.86 ± 0.38; (37 °C) -1.26 ± 0.35.

As to CGGGAGCAAUAUUACGAUCC, the “self-splicing fitness (ln)” value is -3.35 ± 0.21 (30 °C) and -1.68 ± 0.22 (37 °C).

With UACGAGCAAUAUUACGAUAA, the “self-splicing fitness (ln)” value reads like this: (30 °C) -2.9 ± 0.16; (37 °C) -2.05 ± 0.16.

For the sequence AAUUAGCAAUAUUACGAAAU, the “self-splicing fitness (ln)” value (30 °C) is -1.2 ± 0.16 and the “self-splicing fitness (ln)” value (37 °C) was -1.09 ± 0.23.

ACGGAGCAAUAUUACGUGCA: the “self-splicing fitness (ln)” value (37 °C) is -1.4 ± 0.22.

Take AGGAAGCAAUAUUACGCGGU: the “self-splicing fitness (ln)” value is, setting by setting: (30 °C) -4.18 ± 0.39; (37 °C) -1.31 ± 0.2.

Turning to CAGCAGCAAUAUUACGCUUC, the “self-splicing fitness (ln)” value by setting is: (30 °C) -3.43 ± 0.19; (37 °C) -2.63 ± 0.28.

In the case of CAAGAGCAAUAUUACGCCGG, the “self-splicing fitness (ln)” value is -2 ± 0.15 (30 °C) and -1.35 ± 0.24 (37 °C).

For GCUUAGCAAUAUUACGCAUC, the “self-splicing fitness (ln)” value reads like this: (30 °C) -1.04 ± 0.069; (37 °C) -0.56 ± 0.091.

With UCAGAGCAAUAUUACGAGGU, the “self-splicing fitness (ln)” value was -3 ± 0.29 (30 °C) and -2.5 ± 0.32 (37 °C).

In the case of CGGGAGCAAUAUUACGCGUG, the “self-splicing fitness (ln)” value reads like this: (30 °C) -3.47 ± 0.18; (37 °C) -1.65 ± 0.13.

For the sequence GCCGAGCAAUAUUACGUGGU, the “self-splicing fitness (ln)” value (30 °C) was -3.39 ± 0.14 and the “self-splicing fitness (ln)” value (37 °C) is -2.47 ± 0.16.

For the sequence GUCGAGCAAUAUUACGAUAA, the “self-splicing fitness (ln)” value by setting is: (30 °C) -1.44 ± 0.26; (37 °C) -0.0833 ± 0.2.

For the sequence GACCAGCAAUAUUACGAGCC, the “self-splicing fitness (ln)” value was -0.222 ± 0.093 (30 °C) and 0.0644 ± 0.14 (37 °C).

Consider AUUAAGCAAUAUUACGGAUA, for which the “self-splicing fitness (ln)” value runs as follows: (30 °C) -2.12 ± 0.28; (37 °C) -1.99 ± 0.2.

Take UACUAGCAAUAUUACGGGCG: the “self-splicing fitness (ln)” value is, setting by setting: (30 °C) -0.0495 ± 0.11; (37 °C) 0.375 ± 0.14.

On to CGCAAGCAAUAUUACGUCCA, for which the “self-splicing fitness (ln)” value is -1.46 ± 0.089 (30 °C) and -0.939 ± 0.1 (37 °C).

As to GGACAGCAAUAUUACGAAGU, the “self-splicing fitness (ln)” value runs as follows: (30 °C) -1.34 ± 0.14; (37 °C) -0.422 ± 0.14.

Regarding GCGCAGCAAUAUUACGCGGA, the “self-splicing fitness (ln)” value runs as follows: (30 °C) -0.906 ± 0.096; (37 °C) -0.269 ± 0.084.

Consider GUCUAGCAAUAUUACGCUAU, for which the “self-splicing fitness (ln)” value (30 °C) is -1.54 ± 0.11 and the “self-splicing fitness (ln)” value (37 °C) is -0.228 ± 0.1.

As for CGGUAGCAAUAUUACGUCAC, the “self-splicing fitness (ln)” value reads like this: (30 °C) -2.59 ± 0.34; (37 °C) -1.82 ± 0.48.

The record behind these values is the supplement of paper PMC7877785.
